Test results from patent US20090214565A1 (BAYLOR RESEARCH INSTITUTE, published 2009).

Key:
[1] = molecular target: T1, IFN-α I (human, UniProt P01571 24-189); assay: cell-based or functional assay
[2] = molecular target: T2, IFN-α C (human, UniProt P01566 24-189); assay: cell-based or functional assay
[3] = molecular target: T3, IFN-α4a (human, UniProt P05014 24-189, limits assumed); assay: cell-based or functional assay
[4] = molecular target: T4, IFN-α F (human, UniProt P01568 24-189); assay: cell-based or functional assay
[5] = molecular target: T5, IFN-α J1 (human, UniProt P01567 24-189); assay: cell-based or functional assay
[6] = molecular target: T6, IFN-α WA (human, UniProt P05015 24-189); assay: cell-based or functional assay
[7] = molecular target: T7, IFN-α D (human, UniProt P0DY56 24-189); assay: cell-based or functional assay
[8] = molecular target: T8, IFN-α G (human, UniProt P01569 24-189); assay: cell-based or functional assay
[9] = molecular target: T9, IFN-α K (human, UniProt P05013 24-189); assay: cell-based or functional assay
[10] = molecular target: T10, IFN-α H2 (human, UniProt P01570 24-189); assay: cell-based or functional assay
[11] = molecular target: T7, IFN-α D; assay: ELISA, IFN subtype coated
Experimental: Solid-phase binding of all 15 IFNα subtypes was evaluated for screening of MAb specificity by ELISA assay. Briefly, 50 μl/well of 1 μg/ml of a recombinant IFNα protein subtype were coated overnight at 4° C. on ELISA plates (NUNC MaxiSorp™) plates. Coated plates were blocked with PBS+1% BSA and incubated with 50 μl of 25 ng ACO candidate MAb in PBS for 1 hour at 37° C. The assays were developed by incubation with 50 μl/well of an HRP conjugated goat anti-mouse-IgG (Jackson ImmunoResearch) at room temperature for 30 minutes followed by incubation with 100 μl/well of TMB substrate solution (Zymed) for 15 minutes. The reaction was stopped with 100 μl/well of 1 N HCl and read at OD₄₅₀ on an ELISA plate reader.

[12] = molecular target: leukocyte IFN (Sigma); assay: cell-based or functional assay
[13] = molecular target: IFN-β (human, UniProt P01574 22-187); assay: cell-based or functional assay
[14] = molecular target: T1, IFN-α I; assay: cell-based or functional assay; remark: listed apart in the source
[15] = molecular target: T2, IFN-α C; assay: cell-based or functional assay; remark: listed apart in the source
[16] = molecular target: T3, IFN-α4a; assay: cell-based or functional assay; remark: listed apart in the source
[17] = molecular target: T4, IFN-α F; assay: cell-based or functional assay; remark: listed apart in the source
[18] = molecular target: T5, IFN-α J1; assay: cell-based or functional assay; remark: listed apart in the source
[19] = molecular target: T6, IFN-α WA; assay: cell-based or functional assay; remark: listed apart in the source
[20] = molecular target: T7, IFN-α D; assay: cell-based or functional assay; remark: listed apart in the source
[21] = molecular target: T8, IFN-α G; assay: cell-based or functional assay; remark: listed apart in the source
[22] = molecular target: T9, IFN-α K; assay: cell-based or functional assay; remark: listed apart in the source
[23] = molecular target: T10, IFN-α H2; assay: cell-based or functional assay; remark: listed apart in the source
[24] = molecular target: T1, IFN-α I; assay: cell-based or functional assay; remark: listed apart in the source
[25] = molecular target: T2, IFN-α C; assay: cell-based or functional assay; remark: listed apart in the source
[26] = molecular target: T3, IFN-α4a; assay: cell-based or functional assay; remark: listed apart in the source
[27] = molecular target: T4, IFN-α F; assay: cell-based or functional assay; remark: listed apart in the source
[28] = molecular target: T5, IFN-α J1; assay: cell-based or functional assay; remark: listed apart in the source
[29] = molecular target: T6, IFN-α WA; assay: cell-based or functional assay; remark: listed apart in the source
[30] = molecular target: T8, IFN-α G; assay: cell-based or functional assay; remark: listed apart in the source
[31] = molecular target: T9, IFN-α K; assay: cell-based or functional assay; remark: listed apart in the source
[32] = molecular target: T10, IFN-α H2; assay: cell-based or functional assay; remark: listed apart in the source

T7 sequence (P0DY56 entry or part of it limits assumed): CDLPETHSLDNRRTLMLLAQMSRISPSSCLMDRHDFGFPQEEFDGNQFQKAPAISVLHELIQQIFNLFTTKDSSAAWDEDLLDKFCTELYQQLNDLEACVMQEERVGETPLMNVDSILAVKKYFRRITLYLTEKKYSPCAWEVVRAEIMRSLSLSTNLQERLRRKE
T8 sequence (P01569 24-189): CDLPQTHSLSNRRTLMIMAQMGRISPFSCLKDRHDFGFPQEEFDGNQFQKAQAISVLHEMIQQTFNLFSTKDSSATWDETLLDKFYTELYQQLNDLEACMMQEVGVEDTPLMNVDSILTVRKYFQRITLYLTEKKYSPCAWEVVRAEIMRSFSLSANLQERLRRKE
T3 sequence (P05014 24-189 limits assumed): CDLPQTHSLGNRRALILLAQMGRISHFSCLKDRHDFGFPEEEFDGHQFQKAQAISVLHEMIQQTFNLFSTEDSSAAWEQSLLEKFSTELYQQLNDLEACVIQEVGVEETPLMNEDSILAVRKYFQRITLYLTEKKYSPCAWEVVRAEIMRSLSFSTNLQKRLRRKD
T9 sequence (P05013 24-189): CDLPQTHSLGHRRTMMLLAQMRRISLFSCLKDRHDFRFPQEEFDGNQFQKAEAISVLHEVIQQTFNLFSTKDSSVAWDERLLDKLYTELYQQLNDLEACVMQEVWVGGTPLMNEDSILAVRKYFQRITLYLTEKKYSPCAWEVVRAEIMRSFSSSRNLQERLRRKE
T6 sequence (P05015 24-189): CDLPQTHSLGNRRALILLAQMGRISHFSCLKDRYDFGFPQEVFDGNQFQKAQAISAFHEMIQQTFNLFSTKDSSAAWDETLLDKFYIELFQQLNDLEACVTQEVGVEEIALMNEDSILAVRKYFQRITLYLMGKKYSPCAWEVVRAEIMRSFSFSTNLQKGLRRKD
T2 sequence (P01566 24-189): as the sequence (P05014 24-189 limits assumed) above, with A19G, H26P, G37R, F38I, E40Q, H46N, T132I, K134R counted along it
T4 sequence (P01568 24-189): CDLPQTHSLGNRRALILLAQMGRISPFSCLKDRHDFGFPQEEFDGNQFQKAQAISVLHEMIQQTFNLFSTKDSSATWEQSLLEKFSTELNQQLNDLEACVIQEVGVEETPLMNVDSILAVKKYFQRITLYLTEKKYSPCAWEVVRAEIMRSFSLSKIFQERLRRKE
T5 sequence (P01567 24-189 limits assumed): as the sequence (P05014 24-189 limits assumed) above, with G10R, H26P, D35E, G37R, A51T, S116F, T132M, L152F, Q159K, R161G counted along it
T10 sequence (P01570 24-189): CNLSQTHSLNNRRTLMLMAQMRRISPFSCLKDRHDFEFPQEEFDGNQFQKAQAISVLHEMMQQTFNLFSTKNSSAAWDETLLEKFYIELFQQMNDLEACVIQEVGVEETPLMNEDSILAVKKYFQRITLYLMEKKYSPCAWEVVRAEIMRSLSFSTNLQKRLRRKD
T1 sequence (P01571 24-189): as the sequence (P05014 24-189 limits assumed) above, with H26P, F38L, E40Q, H46N, A51T, D95N, V106M, R161I counted along it
IFN-β, sequence (P01574 22-187 limits assumed): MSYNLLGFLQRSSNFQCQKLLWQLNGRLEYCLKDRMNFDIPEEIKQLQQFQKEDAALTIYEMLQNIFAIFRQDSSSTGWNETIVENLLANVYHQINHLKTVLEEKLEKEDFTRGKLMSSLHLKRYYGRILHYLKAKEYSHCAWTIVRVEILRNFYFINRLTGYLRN

B1: ACO-1 (antibody, V domains shown)
VH: QVQLQQPGAELVKPGASVKLSCKASGYTFTNYWMHWVKQRPGQGLEWIGEINPSHGRTIYNENFKSKATLTVDKSSITAFMQLSSLTSEDSAVYFCARGGLGPAWFAYWGQGTLVTVSA
VL: QIVLTQSPAIMSASPGEKVTLTCSAGSSVDSSYLYWYQQKPGSSPKLWIYSTSNLASGVPARFSGSGSGTSYSLTISSMEAEDAASYFCHQWSSYPFTFGSGTKLEIKR
notes: also called ACO-1 monoclonal antibody; hybridoma ATCC PTA-6557
B1 was tested, and the “percentage neutralization, CPE assay” value [1] was 98%, the “percentage neutralization, CPE assay” value [2] was 99.4% and the “percentage neutralization, CPE assay” value [3] was 82.9%. For the same binder, the “percentage neutralization, CPE assay” value [4] was 96.6%, the “percentage neutralization, CPE assay” value [5] was 98.1% and the “percentage neutralization, CPE assay” value [6] was 88.7%. The “percentage neutralization, CPE assay” value [7] was 33%, the “percentage neutralization, CPE assay” value [8] was 99% and the “percentage neutralization, CPE assay” value [9] was 98.3%. For the same binder, the “percentage neutralization, CPE assay” value [10] was 95.9%, the binding result [11] was “no binding (tested: <2-fold over matched controls; 25 ng MAb)” and the neutralization of 600 pg leukocyte IFN, RG bioassay [12] was greater than 50%. The “percentage neutralization, RG assay” value [13] was 9%, the “percentage neutralization, RG assay” value [14] was 87.1% and the “percentage neutralization, RG assay” value [15] was 91.4%. For the same binder, the “percentage neutralization, RG assay” value [16] was 67.8%, the “percentage neutralization, RG assay” value [17] was 83.7% and the “percentage neutralization, RG assay” value [18] was 83.9%. For the same binder, the “percentage neutralization, RG assay” value [19] was 86.9%, the “percentage neutralization, RG assay” value [20] was 12.5% and the “percentage neutralization, RG assay” value [21] was 92.7%. The “percentage neutralization, RG assay” value [22] was 77.9%, the “percentage neutralization, RG assay” value [23] was 77.5% and the “EC50 of neutralization, RG bioassay” value [24] was 0.0135 mg/L. The “EC50 of neutralization, RG bioassay” value [25] was 0.00056 mg/L, the “EC50 of neutralization, RG bioassay” value [26] was 0.00211 mg/L and the “EC50 of neutralization, RG bioassay” value [27] was 0.146 mg/L. For the same binder, the “EC50 of neutralization, RG bioassay” value [28] was 0.168 mg/L, the “EC50 of neutralization, RG bioassay” value [29] was 0.0848 mg/L and the “EC50 of neutralization, RG bioassay” value [30] was 0.0271 mg/L. The “EC50 of neutralization, RG bioassay” value [31] was 0.235 mg/L and the “EC50 of neutralization, RG bioassay” value [32] was 0.153 mg/L.
